As usually defined, the Kd is the concentration at which binding is half-saturated. Read a high Kd as weaker binding.

Results on four substances are retold here after publication PMC5387714.

One test has as its target Human FcRn (human) (UniProt P55899). In words: MST; ligands (HER2, CD16a, FcRn) labelled with RED-NHS; 10 μL labelled ligand mixed with 10 μL gradient mAb; Monolith NT.115, 40% IR-laser power; fit with the Hill equation in Prism.
The target in test [1] is Phe176 CD16a (human) (UniProt P08637). Described as above.
The target in another test is Val176 CD16a (human) (UniProt P08637). Described as above.
The target in test [2] is Phe176 CD16a (human) (UniProt P08637).

Sequence of UniProt P55899 (P55899 24-297): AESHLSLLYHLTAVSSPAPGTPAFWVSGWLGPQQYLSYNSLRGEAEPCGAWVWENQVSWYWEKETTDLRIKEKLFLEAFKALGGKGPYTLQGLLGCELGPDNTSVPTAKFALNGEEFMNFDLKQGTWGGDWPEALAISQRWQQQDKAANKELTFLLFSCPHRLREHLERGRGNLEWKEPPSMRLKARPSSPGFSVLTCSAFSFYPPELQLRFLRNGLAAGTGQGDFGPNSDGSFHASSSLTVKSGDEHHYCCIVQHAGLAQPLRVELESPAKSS

As for Pertuzumab^Fuc+SA+ (antibody), the results for the equilibrium dissociation constant (Kd) in the test with Human FcRn (human), with Phe176 CD16a (human) [1] and with Val176 CD16a (human) were 860 pM, 1310 pM and 350 pM, respectively.

In the case of Pertuzumab^Fuc+SA− (antibody), the values for the equilibrium dissociation constant (Kd) in the test with Human FcRn (human) and with Phe176 CD16a (human) [1] were 830 pM and 450 pM, respectively.

Take Pertuzumab^Fuc−SA+ (antibody): the values for the equilibrium dissociation constant (Kd) with Human FcRn (human) and with Phe176 CD16a (human) [1] were 840 pM and 290 pM, respectively.

Turning to Pertuzumab^Fuc−SA− (antibody), in the test with Phe176 CD16a (human) [2], the ADCC (LDH release), SK-BR-3 target cells, human PBMCs as effector cells, E/T 50/1; fold against pertuzumab^Fuc+SA+; allotype of the donors' FcγRIIIa not stated was determined as 20 fold. Further, the Kd was 820 pM with Human FcRn (human), 130 pM with Phe176 CD16a (human) [1] and 20 pM with Val176 CD16a (human).
